Measurements: IntAct's records for PubMed 27309808

B1: Sperm-egg fusion protein Juno (Homo sapiens), A6ND01-1 (parent)
chain: MACWWPLLLELWTVMPTWAGDELLNICMNAKHHKRVPSPEDKLYEECIPWKDNACCTLTTSWEAHLDVSPLYNFSLFHCGLLMPGCRKHFIQAICFYECSPNLGPWIQPVGSLGWEVAPSGQGERVVNVPLCQEDCEEWWEDCRMSYTCKSNWRGGWDWSQGKNRCPKGAQCLPFSHYFPTPADLCEKTWSNSFKASPERRNSGRCLQKWFEPAQGNPNVAVARLFASSAPSWELSYTIMVCSLFLPFLS
B2: Izumo sperm-egg fusion protein 1 (Homo sapiens), Q8IYV9-1 (parent)
chain: MGPHFTLLCAALAGCLLPAEGCVICDPSVVLALKSLEKDYLPGHLDAKHHKAMMERVENAVKDFQELSLNEDAYMGVVDEATLQKGSWSLLKDLKRITDSDVKGDLFVKELFWMLHLQKETFATYVARFQKEAYCPNKCGVMLQTLIWCKNCKKEVHACRKSYDCGERNVEVPQMEDMILDCELNWHQASEGLTDYSFYRVWGNNTETLVSKGKEATLTKPMVGPEDAGSYRCELGSVNSSPATIINFHVTVLPKMIKEEKPSPNIVTPGEATTESSISLQPLQPEKMLASRLLGLLICGSLALITGLTFAIFRRRKVIDFIKSSLFGLGSGAAEQTQVPKEKATDSRQQ

Variants of: B1
Conditions: with IZUMO1, Q8IYV9-1

| Variant | effect of a mutation on the interaction |
| --- | --- |
| W62A | decreasing interaction strength |
| L81A | decreasing interaction strength |
| M83A | decreasing interaction strength |

Variants of: B2
Conditions: with IZUMO1R

| Variant | effect of a mutation on the interaction |
| --- | --- |
| W148A | decreasing interaction strength |
